# Values of other authors as cited in patent US7144982B2, “Polypeptides with therapeutic activity and methods of use” (University of Minnesota, priority 2000, dated 2006).
# B1: B/PI: 55 kD protein B/PI, bactericidal/permeability increasing protein (protein, UniProt P17213 32-487, looked up)
# Bactericidal …: VNPGVVVRISQKGLDYASQQGTAALQKELKRIKIPDYSDSFKIKHLGKGHYSFYSMDIREFQLPSSQISMVPNVGLKFSISNANIKISGKWKAQKRFLKMSGNFDLSIEGMSISADLKLGSNPTSGKPTITCSSCSSHINSVHVHISKSKVGWLIQLFHKKIESALRNKMNSQVCEKVTNSVSSELQPYFQTLPVMTKIDSVAGINYGLVAPPATTAETLDVQMKGEFYSENHHNPPPFAPPVMEFPAAHDRMVYLGLSDYFFNTAGLVYQEAGVLKMTLRDDMIPKESKFRLTTKFFGTFLPEVAKKFPNMKIQIHVSASTPPHLSVQPTGLTFYPAVDVQAFAVLPNSSLASLFLIGMHTTGSMEVSAESNRLVGELKLDRLLLELKHSNIGPFPVELLQDIMNYIVPILVLPRVNEKLQKGFPLPTPARVQLYNVVLQPHQNFLLFGADVVYK
# Details: literature value; read-out: LPS binding activity (IC50); cited from earlier work
molecule,measurement,value
B1,IC50,20 nM
